Assay results taken from patent publication US20030166537A1, “Use of GDNF for treating corneal defects” (Biopharm Gesellschaft Zur Biotechnologischen Entwicklung …, priority 1999, published 2003).

Experiments:
[1] = tested on: ERK1, ERK2, JNK1 and JNK2; assay: western blot of phosphorylated MAP kinases in cultured human corneal epithelium; assay type: cell-based; settings: human epithelial cells
Method: (§1) In order to evaluate the effect of GDNF and other neurotrophic factors on the activation of signal transduction pathways in cultured corneal epithelial and stromal keratocytes, western blots were performed for detecting an accumulation of phosphorylated MAP kinases ERK and JNK in the presence of GDNF, NGF and BDNF. Human stromal keratocytes were cultured in RPMI 1640 medium containing L-glutamine (glutaMAX) or DMEM with 10% FBS for one day and starved in serum-free medium for another day. Cultures were then washed with PBS and incubated in serum-free DMEM without additives or with recombinant human GDNF (200 ng/ml), recombinant human NGF (200 ng/ml) and recombinant human BDNF (200 ng/ml) (all obtained from R & D Systems, Mineapolis, Minn., USA) for 30 min. Some cultures were incubated with an inhibitor of MAP kinases (PD 98059, Torcris Cookson Ballwin, Mo., USA) at 100 μM for 1 h prior to exposure to neurotrophines. After washing with PBS, culture cells were solubilized in lysis buffer containing 50 mM Tris-Cl (pH 8.0), 150 mM NaCl, 0.02% sodium azide, 100 μg/ml PMSF, 1% Triton X-100 and a mixture of several protein inhibitors (Complete®, Boehringer Mannheim) (one tablet/50 ml buffer). 50 μg total protein per lane was fractionated by a 10% STS-MOPS NUPAGE Bis-tris gel (NOVEX, San Diego, Calif., USA) and blotted onto nitrocellulose membrane. Membranes were stained with diluted polyclonal antibodies against ERK1, ERK2, JNK1 and JNK2 (Santa Cruz Biotechnology, Santa Cruz, Calif., USA). Also a polyclonal antibody was used which recognizes the […] form of either ERK1 and ERK2 which was raised against the catalytic core of the phosphorylated threonine residue 183 and tyrosine residue 185 of mammalian ERK2. Similarily, a polyclonal antibody recognizing the phosphorylated form of JNK1 and JNK2 was used (both from Promega). In the last step the membranes were visualized with the ECL western blot analysis system (Amersham).

[2] = tested on: FAK, Pyk2, cRaf, MEK1, Erk 1 and 2, Elk, RSK; assay: western blot of phosphorylated intracellular signaling proteins in corneal epithelial cells; assay type: cell-based, human
Method: In order to investigate which protein kinase cascades are activated by GDNF and artemin, corneal epithelial cells from the cell line were seeded at a density of 5×10^5 cells/75 cm^2 and cultured in SHEM with 10% FBS for one day. Cultures were then washed with PBS and incubated in serum-free SHEM without additives or with GDNF (200 ng/ml) or with artemin (250 ng) for 10 to 40 minutes. After washing with PBS, cultured cells were solubilized in lysis buffer containing 50 mM Tris2Cl (pH8.0), 150 mM NaCl, 0.02% sodium azide, 100 μg/ml phenylmethylsulfonyl fluoride, 1 mM Na3VO4, 1% Triton X-100 and a mixture of several protease inhibitors [complete™, Boehringer Mannheim (1 tablet/30 ml buffer)]. 80 μg total protein per lane was fractionated by NuPAGE 10% SDS-MOPS-Bis-Tris gel or NuPAGE 3-8% Tris-acetate gel (all from NOVEX, San Diego, Calif.) and blotted onto a nitrocellulose membrane. Phosphorylated proteins were detected with phospho-specific antibodies and visualized with the ECL western blot analysis system (Amersham). Antibodies against phospho-Raf(ser259), phospho-MEK1/2(ser217/221), phospho-MAPK (Erk1/2) (thr202/tyr204), phospho-p90 ribosomal S6 kinase (RSK) (ser381) and phospho-Elk-1(ser383) were obtained from New England Biolabs (Beverly, Mass.). Antibody against phospho-FAK (tyr397/tyr407/tyr576/tyr577/tyr861/tyr925) and phospho-Pyk2 (tyr402/tyr579/tyr/580/tyr881) were purchased from Biosource (Camarillo, Calif., USA). A monoclonal antibody against phospho-tyrosine came from Sigma (Deisenhofen, Germany).

corneal epithelial cells = assay: modified Boyden chamber migration assay; assay type: cell-based; settings: 250 ng/ml in lower well
Method: In order to further evaluate the chemotactic effect of GDNF on corneal epithelial cells, a modified Boyden chamber assay was used. 4×10^5 cells from the either primary cultured cells or the corneal epithelial cell line were seeded onto tissue culture inserts containing a polyethylene terephthalate (PET) filter having a pore size of 8 μm (Falcon). Within 4 hours after seeding most cells had attached to the filter and formed a semiconfluent monolayer. The medium was then changed to SHEM without additives in the upper well and SHEM with GDNF (250 ng/ml) in the lower well. After 24 h of culture cells were removed from the surface of the insert by gentle scrubbing with a rubber policeman. Cells on the bottom of the insert (which had migrated through the filter) were fixed with −20° C. methanol and stained with crystal violet. The entire surface of the filters was screened for cells under the microscope.

Ret = molecular target: T1, Ret (Homo sapiens, UniProt P07949); assay: immuno-precipitation and western blot of tyrosine-phosphorylated Ret in cultured corneal epithelial cells; assay type: cell-based; settings: GDNF 200 ng/ml vs serum-free control cultures
T1 construct: The level of phosphorylated Ret (approximately 150 kD) in cultured corneal epithelial cells (control) was low prior to addition of GDNF; endogenous in cells; host or cells: SV40-transformed human corneal epithelial cell line (Araki-Sasaki et al., 1995)
T1 sequence (P07949 29-1114): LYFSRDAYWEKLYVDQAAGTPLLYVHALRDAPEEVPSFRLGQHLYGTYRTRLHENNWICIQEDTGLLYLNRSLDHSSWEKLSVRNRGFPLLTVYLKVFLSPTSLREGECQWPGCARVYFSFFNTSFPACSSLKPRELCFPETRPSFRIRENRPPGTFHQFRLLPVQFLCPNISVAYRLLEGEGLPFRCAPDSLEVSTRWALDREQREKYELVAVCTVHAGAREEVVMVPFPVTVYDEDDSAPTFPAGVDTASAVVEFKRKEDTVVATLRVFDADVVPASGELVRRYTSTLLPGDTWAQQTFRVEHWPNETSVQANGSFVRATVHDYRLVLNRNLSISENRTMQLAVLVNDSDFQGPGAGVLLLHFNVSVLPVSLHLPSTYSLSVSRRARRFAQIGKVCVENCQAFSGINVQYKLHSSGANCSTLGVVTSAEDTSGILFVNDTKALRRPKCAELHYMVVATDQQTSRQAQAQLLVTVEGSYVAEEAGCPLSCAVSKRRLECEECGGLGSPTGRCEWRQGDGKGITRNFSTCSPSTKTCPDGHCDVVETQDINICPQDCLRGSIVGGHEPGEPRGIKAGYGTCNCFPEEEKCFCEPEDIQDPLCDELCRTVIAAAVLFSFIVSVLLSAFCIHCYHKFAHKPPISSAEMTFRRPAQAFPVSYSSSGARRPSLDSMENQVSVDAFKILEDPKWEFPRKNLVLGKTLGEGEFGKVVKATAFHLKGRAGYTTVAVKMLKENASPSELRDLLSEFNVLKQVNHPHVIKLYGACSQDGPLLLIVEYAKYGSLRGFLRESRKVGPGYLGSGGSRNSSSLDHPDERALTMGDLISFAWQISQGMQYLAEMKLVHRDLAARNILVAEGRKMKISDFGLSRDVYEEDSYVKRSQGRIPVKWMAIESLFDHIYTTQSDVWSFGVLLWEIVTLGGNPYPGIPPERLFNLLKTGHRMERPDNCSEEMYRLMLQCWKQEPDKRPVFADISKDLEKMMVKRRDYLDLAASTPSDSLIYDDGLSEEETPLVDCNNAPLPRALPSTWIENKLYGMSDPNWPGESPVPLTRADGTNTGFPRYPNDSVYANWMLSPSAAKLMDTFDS

[3] = tested on: ERK1, ERK2, JNK1 and JNK2; assay: western blot of phosphorylated MAP kinases in cultured human corneal stromal keratocytes; assay type: cell-based
Method: as §1

[4] = GDNF 200 ng/ml, within 10 minutes
[5] = GDNF 200 ng/ml, within 40 minutes

B1: GDNF: recombinant human GDNF having the amino acid sequence of human wild-type GDNF (GenBank L19063, L15306) (protein)
chain: SPDKQMAVLPRRERNRQAAAANPENSRGKGRRGQRGKNRGCVLTAIHLNVTDLGLGYETKEELIFRYCSGSCDAAETTYDKILKNLSRNRRLVSDKVGQACCRPIAFDDDLSFLDDNLVYHILRKHSAKRCGCI
For B1, which “phosphorylation of ERK1 and ERK2” value ([1]; 200 ng/ml factor vs serum-free control medium) is on record?
The value was “induced”.

What about the “phosphorylation of JNK1/2” value ([1]; vs control) of the same molecule?
Its value is “not induced”.

And the “serine phosphorylation of Elk” value [2, 4]?
The value was “significantly induced”.

What about the “serine phosphorylation of MEK1” value [2, 4] of the same molecule?
Its value is “significantly induced”.

What about the “serine phosphorylation of cRaf” value [2, 4] of the same molecule?
The value was “significantly induced”.

What about the “tyrosine/threonine phosphorylation of Erk 1 and 2” value [2, 4] of the same molecule?
The value was “significantly induced”.

And the “phosphorylation of Pyk2” value [2, 5]?
Its value is “phosphorylated”.

And the “tyrosine phosphorylation of FAK” value [2, 5]?
The value was “gradually increased”.

What about the “phosphorylation of RSK” value ([2]; in response to GDNF) of the same molecule?
Its value is “not detectable”.

And the “increase of number of migrated cells over control” value (corneal epithelial cells)?
Its value is “more than 6 fold”.

What about the “number of cells migrated through the filter” value (corneal epithelial cells; 8 μm pore size, 24 h, control 19±6.8) of the same molecule?
Its value is 117±37.6.

And the “time to induction of tyrosine phosphorylation of Ret” value (Ret)?
The value was ≤ 5 min.

And the “activated JNK2” value [3]?
Its value is “not induced”.

What about the “phosphorylation of ERK1 and ERK2” value ([3]; 200 ng/ml factor vs control) of the same molecule?
The value was “induced ERK1 to a limited extent”.

What about the “phosphorylation of JNK1” value ([3]; vs serum-free medium) of the same molecule?
Its value is “weakly induced”.
